Measured values reported in article PMC2920595 (Science (New York, N.Y.), 2009).

Target: T1, Ssh1p (large subunit, as in the purified Ssh1 complex) (Saccharomyces cerevisiae, UniProt P38353 1-490)
T1 sequence (looked up): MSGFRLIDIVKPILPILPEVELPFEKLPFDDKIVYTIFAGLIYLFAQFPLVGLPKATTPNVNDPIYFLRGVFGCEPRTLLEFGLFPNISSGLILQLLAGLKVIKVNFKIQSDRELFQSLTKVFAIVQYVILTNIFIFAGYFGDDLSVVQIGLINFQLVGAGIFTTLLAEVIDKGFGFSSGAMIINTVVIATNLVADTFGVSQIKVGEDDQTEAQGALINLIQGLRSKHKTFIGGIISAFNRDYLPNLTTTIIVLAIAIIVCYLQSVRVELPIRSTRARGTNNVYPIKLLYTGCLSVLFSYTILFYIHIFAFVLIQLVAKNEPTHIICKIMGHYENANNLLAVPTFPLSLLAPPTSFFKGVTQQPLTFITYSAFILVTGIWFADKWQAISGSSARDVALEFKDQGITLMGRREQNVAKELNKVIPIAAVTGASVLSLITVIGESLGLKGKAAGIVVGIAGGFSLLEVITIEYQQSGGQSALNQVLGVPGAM
Experiment: cryo-EM structure

B1: ribosomal protein rpL25 (yeast 60S subunit) (natural protein)
chain: not shown
B1: binds.
